From doi:10.1101/2020.10.27.356691 (bioRxiv, 2020) come the findings set out here.

What is called Kd is the concentration at which binding is half-saturated. Lower therefore signals higher affinity.

The experiment deals with T1, cytochrome P450 CYP124 from Mycobacterium tuberculosis (Mycobacterium tuberculosis, UniProt P9WPP3 1-428).
T1 sequence: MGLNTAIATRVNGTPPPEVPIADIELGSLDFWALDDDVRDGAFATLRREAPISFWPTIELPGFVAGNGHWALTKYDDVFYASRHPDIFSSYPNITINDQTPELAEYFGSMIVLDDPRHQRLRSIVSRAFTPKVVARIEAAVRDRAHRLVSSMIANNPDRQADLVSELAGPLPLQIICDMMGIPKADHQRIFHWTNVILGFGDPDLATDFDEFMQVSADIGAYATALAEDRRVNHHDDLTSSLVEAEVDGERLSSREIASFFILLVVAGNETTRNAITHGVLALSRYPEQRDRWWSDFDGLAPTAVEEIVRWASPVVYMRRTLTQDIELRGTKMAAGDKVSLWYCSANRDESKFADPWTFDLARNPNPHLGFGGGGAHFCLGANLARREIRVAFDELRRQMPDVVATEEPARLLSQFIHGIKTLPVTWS
Kind of experiment: ITC.

B1: rubredoxin B (RubB) from Mycobacterium tuberculosis, wild type (natural protein)
chain: MNDYKLFRCIQCGFEYDEALGWPEDGIAAGTRWDDIPDDWSCPDCGAAKSDFEMVEVARS
In turn, B1 showed a dissociation constant (Kd) of 12.8 µM.
